Among the data in publication doi:10.1101/2020.02.12.945170 (2020) are Kd and koff values, retold here.

Square brackets hold non-standard residues; d marks the D form. Ends that are not written are not given here. * marks the point of attachment. Biotin = O=C1N[C@H]2[C@H](CS[C@H]2CCCCC(=O)*)N1; pY = N[C@@H](Cc1ccc(OP(=O)(O)O)cc1)C(=O)O

B1: ZAP70 tSH2-GFP (tandem SH2 domains of human ZAP70, amino acids 1-264, with C-terminal GFP) (domain or fragment)
chain: MPDPAAHLPFFYGSISRAEAEEHLKLAGMADGLFLLRQCLRSLGGYVLSLVHDVRFHHFPIERQLNGTYAIAGGKAHCGPAELCEFYSRDPDGLPCNLRKPCNRPSGLEPQPGVFDCLRDAMVRDYVRQTWKLEGEALEQAIISQAPQVEKLIATTAHERMPWYHSSLTREEAERKLYSGAQTDGKFLLRPRKEQGTYALSLIYGKTVYHYLISQDKAGKYCIPEGTKFDTLWQLVEYLKLKADGLIYCLKEACPNSSASNASG

The target of assay [1] is B1. As to the kind of experiment: SPR. For orientation: SPR reads the build-up and loss of mass on a sensor chip optically.
Assay [2] has as its target B1. As to the kind of experiment: SPR.
Assay [3] has as its target B1. In words: SPR; 37°C.
For assay [4], the target named is B1. In words: SPR; 37°C.
The target in assay [5] is B1. As to the kind of experiment: single-particle tracking TIRF.
In assay [6] the target is T1, Avi-CD3ζ ITAM3 (full intracellular tail of CD3ζ, amino acids 52-164, all tyrosines mutated to Ala except the … (UniProt P20963-1 52-164, biotin on the Avitag; tyrosines of ITAM3 phosphorylated in vitro by Lck). In words: SPR; phosphorylated on ITAM3; dissociation phase fit.
The target in assay [7] is T1, Avi-CD3ζ ITAM3 (full intracellular tail …). As to the kind of experiment: SPR; phosphorylated on ITAM3; from kobs plot intercept.

T1 sequence (P20963 52-164, change not shown): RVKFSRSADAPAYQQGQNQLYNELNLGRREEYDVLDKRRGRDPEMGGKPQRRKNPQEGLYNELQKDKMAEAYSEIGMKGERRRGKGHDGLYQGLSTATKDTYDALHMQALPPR

Biotin-GKGHDLL[pY]QGLSTATKDTYDALHMQ [ITAM3 N (N-monophosphorylated CD3ζ ITAM3 peptide)]: the Kd in assay [1] and in assay [3] was 20.7 µM throughout. The dissociation rate constant (koff) (commonly a measure of how fast the partners let go of each other) in assay [2] was 5.5 s⁻¹; in assay [4], 5.5 s⁻¹; in assay [5], 4.8 s⁻¹.
As to B1, the values for the koff in assay [6] and in assay [7] were 0.25 s⁻¹ and 0.21 s⁻¹, respectively.
With Biotin-GKGHDLLYQGLSTATKDT[pY]DALHMQ [ITAM3 C (C-monophosphorylated CD3ζ ITAM3 peptide)], the equilibrium dissociation constant (Kd) in assay [1] and in assay [3] was 7.52 µM each time.
